# Laboratory results as given in article doi:10.1101/848226.
# Biological target: mCherry-CARACB(G15V) (barley (Hordeum vulgare))
# Experiment: FRET or BRET
substance,measurement,value
GFP-RIC157 (natural protein),GFP lifetime,2.2 ns
